B1: S100A8/A9: recombinant S100A8/A9, heterocomplex of two S100 calcium binding proteins (calprotectin) (protein, UniProt P27005 2-89; P31725 2-113, looked up)
Protein S100-A8: PSELEKALSNLIDVYHNYSNIQGNHHALYKNDFKKMVTTECPQFVQNINIENLFRELDINSDNAINFEEFLAMVIKVGVASHKDSHKE
Protein S100-A9: ANKAPSQMERSITTIIDTFHQYSRKEGHPDTLSKKEFRQMVEAQLATFMKKEKRNEALINDIMEDLDTNQDNQLSFEECMMLMAKLIFACHEKLHENNPRGHGHSHGKGCGK

How the values were obtained:
[1] = test system: KPr^p53A cells; assay: In vivo stress induction, NOD/SCID mice injected with KPr^p53A cells and PMN; design: species or system mouse
Excerpt: A total of 2.5×10^4 KPr^p53A cells were intravenously injected to NOD/SCID mice. Beginning 3 weeks after injection, mice were imaged weekly. Luciferin (PerkinElmer) was intraperitoneally injected in mice before imaging according to the manufacturer's instruction. Mice were imaged with IVIS Spectrum In Vivo Imaging System (IVIS, PerkinElmer) to detect luminescent signal coming from growing cancer cells. Mice were put under anesthesia in the induction chamber with isoflurane vaporizer set to 2.5%, at a flow rate of ˜1.5 liters/min. Mice were then transferred in the IVIS imaging stage nose cone inside the IVIS manifold (IVIS manifold nose cones flow set to ˜0.25 LPM). Animals were monitored by video during imaging. Once the images of luciferase/luciferin activity were acquired, the anesthesia was turned off and the animals were returned to their cages. […] Analysis and quantification were performed with IVIS imaging system Living Image Software 4.7.4 (PerkinElmer). […] When signal was detected, mice were sacrificed, and bioluminescent images of the harvested lung were taken. […] If no bioluminescence was detected in lungs after 80 days from last PMN injection, experiments were terminated, and lung tissue were collected. […] Bioluminescence was not detected in any LL2^CisA-injected mice at 3 weeks after injection. Mice were treated with PMN or PMN-MDSC and analyzed as described above. […]

[2] = test system: PMN and PMN-MDSC; assay: NET detection; type: cell-based, mouse
Method: PMN were cultured for 8 hours in 24-well flat-bottom plates in RPMI 1640+10% FBS. PMN were then fixed with 4% paraformaldehyde (Electron Microscopy Sciences) followed by staining with SYTOX Green Nucleic Acid Stain (SYTOX) at a final concentration of 250 nM. A Nikon TE300 inverted microscope equipped with a motorized XY stage was used to image NETs by acquiring 25 random locations per well. The z-stacks per location were then combined into an extended depth focused image. The total NET area was calculated by segmenting each image using a defined threshold pixel intensity setting. The spot detection tool in NIS-Elements Advanced Research (Nikon) was used to count the number of cells per field. The sum of the total NET area in the 25 random fields of view was divided by the total number of cells in the 25 fields of view to obtain NET area (in […]) per cell.

[3] = test system: PMN; assay: qRT-PCR of Ptges, Ptgs2 and Arg1 in PMN; type: cell-based, mouse
Method: RNA from tumor cells or PMN was extracted from snap-frozen pellets with Quick-RNA Microprep or Quick-RNA Miniprep (Zymo Research) per the manufacturer's instructions. cDNA was prepared with a High-Capacity cDNA Reverse Transcription Kit with RNase Inhibitor (Thermo Fisher Scientific) per the manufacturer's instructions. qRT-PCR was performed in an ABI QuantStudio 5 Rm 422 machine (Applied Biosystems).

[4] = test system: PMN; assay: LC-ESI-MS analysis of lipids in PMN; type: cell-based, mouse
Method: Lipids were extracted by the Folch procedure with slight modifications, under nitrogen atmosphere, at all steps. Briefly, methanol (1 ml) was added to the cell suspension and mixed. After that, chloroform (2 ml) was added, and the mixture was vortexed every 15 min for 1 hour at 0° C. Next, 0.1 M NaCl (0.5 ml) was added to the samples and vortexed, and the chloroform layer was separated by centrifugation (1500 g, 5 min). The lower (organic) layer was collected. The aqueous layer was re-extracted with 1 ml of chloroform/methanol (2:1, v/v). The chloroform (lower) layers were combined, evaporated under a stream of nitrogen, and used for lipidomics analysis. MS analysis of phospholipids was performed on a Fusion Lumos trihybrid-quadrupoleorbitrap-ion trap mass spectrometer (Thermo Fisher Scientific). Phospholipids were separated on a normal phase column [Luna 3 μm Silica (2) 100 A, 150×1.0 mm (Phenomenex)] at a flow rate of 0.065 ml/min on a Thermo Ultimate 3000 HPLC system. The column was maintained at 35° C. The analysis was performed using gradient solvents (A and B) containing 10 mM ammonium formate. Solvent A contained propanol/hexane/water (285:215:5, v/v/v) and solvent B contained propanol/hexane/water (285:215:40, v/v/v). All solvents were LC/MS grade. The column was eluted for 0 to 3 min with a linear gradient from 10 to 37% B and then held for 3 to 15 min at 37% B. The column was eluted for 15 to 23 min with a linear gradient of 37 to 100% B, and then held for 23 to 75 min at 100% B. The column was eluted again for 75 to 76 min with a linear gradient from 100 to 10% B followed by equilibration from 76 to 90 min at 10% B. Analysis was performed in negative ion mode at a resolution of 120,000 for the full MS scan in a data-dependent mode. The scan range for MS analysis was 400 to 1800 m/z (mass/charge ratio) with a maximum injection time of 100 ms using 1 microscan. An isolation window of 1.2 Da was set for the MS and MS2 scans. Capillary spray voltage was set at 3.5 kV, and capillary temperature was 320° C.

Molecule	growth of KPr^p53A cells in lung and liver of stressed mice injected with PMN ([1]; 1 mg/kg i.p. daily during stress induction)	survival of stressed tumor-bearing mice ([1]; humane end-points, n=10 per group)	NET formation by PMN and PMN-MDSC [2]	expression of Arg1, Ptgs2, or Ptges in PMN [3]	content of oxidatively truncated PC species in PMN ([4]; PMN incubation)	accumulation of oxidized, oxidatively truncated, and lyso-PE in PMN ([4]; overnight treatment)	content of LPE containing saturated and monoenic acyl chains in PMN ([4]; overnight treatment)
Cc1ccc(OCC(O)C(C)NC(C)C)c2c1CCC2 (stereo not shown) [ICI-118,551]	abrogated this effect	markedly improved survival					
B1			did not cause substantial up-regulation of NETs	little or no effect on expression of Arg1, Ptgs2, or Ptges	No significant changes in the content of oxidatively truncated PC species	caused marked accumulation of oxidized, oxidatively truncated, and lyso-PE in PMN	did not change the content of LPE containing saturated and monoenic acyl chains in PMN
